{
  "source": "IntAct's records for PubMed 27284196",
  "parents": {"B1": {"name": "Transcriptional regulator LdrP (Thermus thermophilus (strain HB8 / ATCC 27634 / DSM 579)), Q53W63 (parent)", "chain": "MKRFARKETIYLRGEEARTLYRLEEGLVRVVELLPDGRLITLRHVLPGDYFGEEALEGKAYRYTAEAMTEAVVQGLEPRAMDHEALHRVARNLARQMRRVQAYEAHLQTGELRARIARYLLFLADTPLSARDRQGIYVTVSHEEIADATASIRESVSKVLADLRREGLIATAYRRVYLLDLAALEREAGSALEAA", "partner": "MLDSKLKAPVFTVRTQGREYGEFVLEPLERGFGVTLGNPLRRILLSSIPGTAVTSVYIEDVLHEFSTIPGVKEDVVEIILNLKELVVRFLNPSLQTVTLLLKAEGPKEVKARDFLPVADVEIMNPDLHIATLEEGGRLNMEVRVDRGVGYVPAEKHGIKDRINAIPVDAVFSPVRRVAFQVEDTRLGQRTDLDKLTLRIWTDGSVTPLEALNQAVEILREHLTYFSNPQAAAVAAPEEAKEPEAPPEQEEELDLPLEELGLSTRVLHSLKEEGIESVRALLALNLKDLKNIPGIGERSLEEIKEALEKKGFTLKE"}},
  "data": [
    {"variants_of": "B1", "details": "with rpoa_thet8 rpoA", "values": [
      {"variant": "MKRFARKETIYLRGEEARTLYRLEEGLVRVVELLPDGRLITLRHVLPGDYFGEEALEGKAYRYTAEAMTEAVVQGLEPRAMDHEALHRVARNLARQMRRVQAYEAHLQTGELRARIARYLLFLAKTPLSARDRQGIYVTVSHEEIADATASIRESVSKVLADLRREGLIATAYRRVYLLDLAALEREAGSALEAA", "note": "[D125K]", "effect of a mutation on the interaction": "disrupting interaction strength"},
      {"variant": "MKRFARKETIYLRGEEARTLYRLEEGLVRVVELLPDGRLITLRHVLPGDYFGEEALEGKAYRYTAEAMTEAVVQGLEPRAMDHEALHRVARNLARQMRRVQAYEAHLQTGELRARIARYLLFLADTPLSARDRQGIYVTVSHEEIADATASIRESVSKVLADLRREGLIATAYRRVYLLDLAALKREAGSALEAA", "note": "[E185K]", "effect of a mutation on the interaction": "disrupting interaction strength"}
    ]}
  ]
}
